Assay: Specificity of different cyclodextrin glucosyltransferases to glycosylated genistein products (maltodextrin donor, genistein receptor, HPLC)
Format: biochemical
Conditions: for content of long-chain glycosylated genistein in the reaction solution / content of short-chain glycosylated genistein in the reaction solution / ratio of the molar content of long-chain glycosylated genistein to the molar content of total glycosylated genistein in the reaction solution / ratio of the molar content of short-chain glycosylated genistein to the molar content of total glycosylated genistein in the reaction solution: 40° C., pH 6.5, 120 rpm, 20-24 hours; for specificity to long-chain glycosylated genistein products in comparison with wild type: in words, from Tables 1 to 2; for increase of the yield of long-chain glycosylated genistein compared with wild-type cyclodextrin glucosyltransferase: versus wild type
Experimental: Genistein (purchased from Sigma) was dissolved in dimethyl sulfoxide (DMSO) to prepare a genistein solution with a final concentration of 7.5 g/L; maltodextrin (purchased from Shanghai Sangon Biotech Co., Ltd.) was dissolved in a PBS buffer (50 mM, pH 6.5) to prepare a maltodextrin solution with a final concentration of 40 g/L; the freeze-fried pure enzymes of the mutants A156V/L174P, A156V/L174P/166Y, A156V/L174P/A166V, A156V/L174P/A166G, A156V/L174P/A166K, A156S, A156L and L174M obtained in Example 1 were dissolved in a PBS buffer (50 mM, pH 6.5) separately to prepare a CGTase enzyme solution with a final concentration of 15 U/L; 300 μL of the genistein solution, 500 μL of the maltodextrin solution and 200 μL of the CGTase enzyme solution were taken separately, mixed in a 2 mL vial with a lid and placed in a shaker for slow shaking at 40° C. and 120 rpm for 20-24 hours to obtain a reaction solution.
The molar content of short-chain glycosylated genistein (here the short-chain glycosylated genistein was a mixture of monoglycosylated genistein, diglycosylated genistein and triglycosylated genistein) and long-chain glycosylated genistein (here the long-chain glycosylated genistein was a mixture of tetraglycosylated genistein, pentaglycosylated genistein and hexaglycosylated genistein) in the reaction solution was detected by HPLC, the ratio (%) of the molar content of short-chain glycosylated genistein and long-chain glycosylated genistein in the reaction solution to the molar content of total glycosylated genistein in the reaction solution and the content (g/L) of short-chain glycosylated genistein and long-chain glycosylated genistein in the reaction solution were calculated, and detection results were shown in Tables 1 to 2. A method for detecting the ratio (%) of the content of short-chain glycosylated genistein and long-chain glycosylated genistein in the reaction solution to the content of total glycosylated genistein in the reaction solution by HPLC included that the reaction solution was filtered through a 0.22 μm filter membrane, and an Amethyst C18-H column (4.6*250 mm, Sepax, America) was used for detection (see Table 3 for specific detection conditions). The content of long-chain glycosylated genistein=the molar content of hexaglycosylated genistein*the molecular weight of hexaglycosylated genistein+ the molar content of pentaglycosylated genistein*the molecular weight of pentaglycosylated genistein+ the molar content of tetraglycosylated genistein*the molecular weight of tetraglycosylated genistein, and the content of short-chain glycosylated genistein=the molar content of triglycosylated genistein*the molecular weight of triglycosylated genistein+ the molar content of diglycosylated genistein*the molecular weight of diglycosylated genistein+ the molar content of monoglycosylated genistein*the molecular weight of monoglycosylated genistein.

Molecule	content of long-chain glycosylated genistein in the reaction solution	content of short-chain glycosylated genistein in the reaction solution	ratio of the molar content of long-chain glycosylated genistein to the molar content of total glycosylated genistein in the reaction solution	ratio of the molar content of short-chain glycosylated genistein to the molar content of total glycosylated genistein in the reaction solution	specificity to long-chain glycosylated genistein products in comparison with wild type	increase of the yield of long-chain glycosylated genistein compared with wild-type cyclodextrin glucosyltransferase
A156V/L174P: cyclodextrin glucosyltransferase mutant: alanine 156 into valine and leucine 174 into proline of SEQ ID NO: 1 (protein, Translated from synthetic DNA) SPDTSVDNKVNFSTDVIYQIVTDRFADGDRTNNPAGDAFSGDRSNLKLYFGGDWQGIIDKINDGYLTGMGVTALWISQPVENITSVIKYSGVNNTSYHGYWARDFKQTNDAFGDFADFQNLIDTAHAHNIKVVIDFAPNHTSPADRDNPGFAENGVLYDNGSLLGAYSNDTAGPFHHNGGTDFSTIEDGIYKNLYDLADINHNNNAMDAYFKSAIDLWLGMGVDGIRFDAVKHMPFGWQKSFVSSIYGGDHPVFTFGEWYLGADQTDGDNIKFANESGMNLLDFEYAQEVREVFRDKTETMKDLYEVLASTESQYDYINNMVTFIDNHDMDRFQVAGSGTRATEQALALTLTSRGVPAIYYGTEQYMTGDGDPNNRAMMTSFNTGTTAYKVIQALAPLRKSNPAIAYGTTTERWVNNDVLIIERKFGSSAALVAINRNSSAAYPISGLLSSLPAGTYSDVLNGLLNGNSITVGSGGAVTNFTLAAGGTAVWQYTAPETSPAIGNVGPTMGQPGNIVTIDGRGFGGTAGTVYFGTTAVTGSGIVSWEDTQIKAVIPKVAAGKTGVSVKTSSGTASNTFKSFNVLTGDQVTVRFLVNQANTNYGTNVYLVGNAAELGSWDPNKAIGPMYNQVIAKYPSWYYDVSVPAGTKLDFKFIKKGGGTVTWEGGGNHTYTTPASGVGTVTVDWQN	5.2 g/L	9.7 g/L	25%	75%	significantly improved	62.5%
A156V/L174P/A166G: cyclodextrin glucosyltransferase mutant: A156V, L174P and alanine 166 into glycine of SEQ ID NO: 1 (protein, Translated from synthetic DNA) SPDTSVDNKVNFSTDVIYQIVTDRFADGDRTNNPAGDAFSGDRSNLKLYFGGDWQGIIDKINDGYLTGMGVTALWISQPVENITSVIKYSGVNNTSYHGYWARDFKQTNDAFGDFADFQNLIDTAHAHNIKVVIDFAPNHTSPADRDNPGFAENGVLYDNGSLLGGYSNDTAGPFHHNGGTDFSTIEDGIYKNLYDLADINHNNNAMDAYFKSAIDLWLGMGVDGIRFDAVKHMPFGWQKSFVSSIYGGDHPVFTFGEWYLGADQTDGDNIKFANESGMNLLDFEYAQEVREVFRDKTETMKDLYEVLASTESQYDYINNMVTFIDNHDMDRFQVAGSGTRATEQALALTLTSRGVPAIYYGTEQYMTGDGDPNNRAMMTSFNTGTTAYKVIQALAPLRKSNPAIAYGTTTERWVNNDVLIIERKFGSSAALVAINRNSSAAYPISGLLSSLPAGTYSDVLNGLLNGNSITVGSGGAVTNFTLAAGGTAVWQYTAPETSPAIGNVGPTMGQPGNIVTIDGRGFGGTAGTVYFGTTAVTGSGIVSWEDTQIKAVIPKVAAGKTGVSVKTSSGTASNTFKSFNVLTGDQVTVRFLVNQANTNYGTNVYLVGNAAELGSWDPNKAIGPMYNQVIAKYPSWYYDVSVPAGTKLDFKFIKKGGGTVTWEGGGNHTYTTPASGVGTVTVDWQN	4.4 g/L	10.9 g/L	20%	80%	significantly improved	–
A156V/L174P/A166V: cyclodextrin glucosyltransferase mutant: A156V, L174P and alanine 166 into valine of SEQ ID NO: 1 (protein, Translated from synthetic DNA) SPDTSVDNKVNFSTDVIYQIVTDRFADGDRTNNPAGDAFSGDRSNLKLYFGGDWQGIIDKINDGYLTGMGVTALWISQPVENITSVIKYSGVNNTSYHGYWARDFKQTNDAFGDFADFQNLIDTAHAHNIKVVIDFAPNHTSPADRDNPGFAENGVLYDNGSLLGVYSNDTAGPFHHNGGTDFSTIEDGIYKNLYDLADINHNNNAMDAYFKSAIDLWLGMGVDGIRFDAVKHMPFGWQKSFVSSIYGGDHPVFTFGEWYLGADQTDGDNIKFANESGMNLLDFEYAQEVREVFRDKTETMKDLYEVLASTESQYDYINNMVTFIDNHDMDRFQVAGSGTRATEQALALTLTSRGVPAIYYGTEQYMTGDGDPNNRAMMTSFNTGTTAYKVIQALAPLRKSNPAIAYGTTTERWVNNDVLIIERKFGSSAALVAINRNSSAAYPISGLLSSLPAGTYSDVLNGLLNGNSITVGSGGAVTNFTLAAGGTAVWQYTAPETSPAIGNVGPTMGQPGNIVTIDGRGFGGTAGTVYFGTTAVTGSGIVSWEDTQIKAVIPKVAAGKTGVSVKTSSGTASNTFKSFNVLTGDQVTVRFLVNQANTNYGTNVYLVGNAAELGSWDPNKAIGPMYNQVIAKYPSWYYDVSVPAGTKLDFKFIKKGGGTVTWEGGGNHTYTTPASGVGTVTVDWQN	6.8 g/L	9.5 g/L	29%	71%	significantly improved	112.5%
A156V/L174P/A166K: cyclodextrin glucosyltransferase mutant: A156V, L174P and alanine 166 into lysine of SEQ ID NO: 1 (protein, Translated from synthetic DNA) SPDTSVDNKVNFSTDVIYQIVTDRFADGDRTNNPAGDAFSGDRSNLKLYFGGDWQGIIDKINDGYLTGMGVTALWISQPVENITSVIKYSGVNNTSYHGYWARDFKQTNDAFGDFADFQNLIDTAHAHNIKVVIDFAPNHTSPADRDNPGFAENGVLYDNGSLLGKYSNDTAGPFHHNGGTDFSTIEDGIYKNLYDLADINHNNNAMDAYFKSAIDLWLGMGVDGIRFDAVKHMPFGWQKSFVSSIYGGDHPVFTFGEWYLGADQTDGDNIKFANESGMNLLDFEYAQEVREVFRDKTETMKDLYEVLASTESQYDYINNMVTFIDNHDMDRFQVAGSGTRATEQALALTLTSRGVPAIYYGTEQYMTGDGDPNNRAMMTSFNTGTTAYKVIQALAPLRKSNPAIAYGTTTERWVNNDVLIIERKFGSSAALVAINRNSSAAYPISGLLSSLPAGTYSDVLNGLLNGNSITVGSGGAVTNFTLAAGGTAVWQYTAPETSPAIGNVGPTMGQPGNIVTIDGRGFGGTAGTVYFGTTAVTGSGIVSWEDTQIKAVIPKVAAGKTGVSVKTSSGTASNTFKSFNVLTGDQVTVRFLVNQANTNYGTNVYLVGNAAELGSWDPNKAIGPMYNQVIAKYPSWYYDVSVPAGTKLDFKFIKKGGGTVTWEGGGNHTYTTPASGVGTVTVDWQN	5.1 g/L	10.1 g/L	24%	76%	significantly improved	59.4%
